One protein from patent publication US20090275085A1, “Enzyme for Obtaining Prebiotic Oligosaccharides” (CONSEJO SUPERIOR DE INVESTIGACIONES CIENTIFICAS, priority 2004, published 2009) can be followed below.

Substrate in data set [1]: OC[C@H]1O[C@H](O[C@H]2[C@H](O)[C@@H](O)[C@@H](O[C@H]3[C@H](O)[C@@H](O)C(O)O[C@@H]3CO)O[C@@H]2CO)[C@H](O)[C@@H](O)[C@@H]1O
The data set is described as follows: purified protein, by the assay type. The following applies: other: 30 minutes, 100 ng of enzyme; starch supplied by Avebe, 8100 Da.

Substrate in data set [2]: OC[C@H]1O[C@H](O[C@H]2[C@H](O)[C@@H](O)[C@@H](O[C@H]3[C@H](O)[C@@H](O)[C@@H](O[C@H]4[C@H](O)[C@@H](O)[C@@H](O[C@H]5[C@H](O)[C@@H](O)[C@@H](O[C@H]6[C@H](O)[C@@H](O)[C@@H](O[C@H]7[C@H](O)[C@@H](O)C(O)O[C@@H]7CO)O[C@@H]6CO)O[C@@H]5CO)O[C@@H]4CO)O[C@@H]3CO)O[C@@H]2CO)[C@H](O)[C@@H](O)[C@@H]1O
The data set is described as follows: Kinetic constants of X. dendrorhous α-glucosidase glycosylhydrolase activity. The class given is biochemical, Xanthophyllomyces dendrorhous. The following applies: other: 30 minutes, 100 ng of enzyme; starch supplied by Avebe, 8100 Da.

A word on the Km: it is the concentration of substrate that gives half-maximal velocity. Usually kcat stands for the maximal rate divided by the concentration of active sites. As usually defined, the kcat/Km is the turnover number divided by the Michaelis constant.

B1: X. dendrorhous α-glucosidase (purified enzyme) (Phaffia rhodozyma) (protein)
chain: SSPSSFQGPSELLSNQKRYSKRDNTGSYSLNTTACGGYSVSSVDSTGNGLQAHLSLNGEPCRAFGVDYTDLLVDVEYQTQERIRVHIYDADKIEFQVPENIFPKPQSDNGLDLNQTDLVFNHQENPFAFWITRRNASDDETPIFDTRPSSKTSVDYPIEPPYGGVEKVNSSTAVPDESGGLVFEAGYLEISSFLPKDANIFGLGEVVATSGFRRNSSATVQTMWARDVGDPENQNMYGDHPIYIETRFNKNGASSSHGVFLLNSEGMDIVLRDEVIEYRPLGGSLDFYFISGPTPIKVIEQYSEISGRSLLHPYWSYGFHLCRWGYDNITQNREIVQSMKDANLPLETFWNDIDWMDTYRNFVPAPNRFEPADYKAFVDELHANNQHYIPIIDAAIGVVTNDTDVYDTFTAGDAANTYIKNPDGSNYIGKVWPGYTVFPDWFQNSTQDWWTEAFINYSQIVEFDGIWIDMNEPSSFCEGSCGSSADLNNITPPFLLPGQPGAVTLIDGTFPEGYNATLWGYSGNLTINGSLTFNSTPPNYGRPDRRSQLSRRVGQGVDVNTPAYEIHNALDKLAISTVSPNATHLNGDIQDIDVHNLFGYMEGIATFNVWNTYKPNKRPFIVSRSTFPGAGTKVAHWLGDNYSTWKYLRYVNQGVLQFQIYGIPMVGADTCGFAGNTDEELCNRWMQLAAFYPFFRNHNIKSALAQEPFRWDSVAEATRNATAIRYALLPYWYTLFYQASSVGTPPIRALFYEFDQEELLSVDAQFLVGRNVLVTGAMYPNITSVEGYLPGGDDEIWRDWYTHEVIKPTSDDGKYDFPAPLGHIPVTIRSGAIFLLHSEPGMTVYDTRESPYSILVSLDKSSEAEGYAFIDDGESFPVTDSREVHLGAAEGKVYGWTSGSYNVGQKLAQVTVLGVKTEPSTVTFNGQAITTGWTYEADLERFVVTGLQGDLNGGWELDWA
Take B1: in data set [1], the Michaelis-Menten constant (Km) was 550 µM, the turnover number (kcat) was determined as 4 s⁻¹ and the kcat/Km is 7270 M⁻¹ s⁻¹. Further, in data set [2], the Km came to 860 µM, the kcat is 5 s⁻¹ and the kcat/Km turned out to be 5800 M⁻¹ s⁻¹.
